Measured values: paper PMC10385375, “In Situ Monitoring of Aptamer–Protein Binding on a ZnO Surface Using Spectroscopic Ellipsometry”

Target: SARS-CoV-2 spike protein (SARS-CoV-2, UniProt P0DTC2)
Assay: spectroscopic ellipsometry, immobilised aptamer; PBS (137 mM NaCl, 2.7 mM KCl, 10 mM phosphate, pH 7.4); […]
Conditions: protein: commercial; chain copies: 3

B1: spike aptamer (ssDNA)
DNA: CAGCACCGACCTTGTGCTTTGGGAGTGCTGGTCCAAGGGCGTTAATGGACA
modifications: 5' amine
**Q.** Does B1 bind?
**A.** binds
